Reference: the nanobody polyreactivity screen of Harvey et al. (2022)

Test: yeast display, Sf9 membrane polyspecificity reagent, FACS + sequencing; frameworks hold sequencing errors
Outline: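 Genes from sorted yeast were amplified by colony PCR, read by MiSeq 2 × 250 sequencing and filtered on CDR length. These cells carried a synthetic nanobody library in Saccharomyces cerevisiae BJ5465 and were sorted by FACS into low and high (top ~1%) gates on anti-HA and streptavidin fluorescence. Polyreactivity is labelled according to the gate of origin.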

Sequence | polyreactivity (PSR sort gate)
QVQLVESGGGLVQAGGSLRLSCAASGFTFLYYTMGWYRQAPGKERELVAAISSGGRTTYADSVKGRFTISRDNAKNTVYLQMNSLKQEDTAVYYCAARYRTLDGEVDYWGQGTQVTVSS | high polyreactivity
PVQLVESGGGLVQAGGSLRLICAASGRIFLPYAMGWYRQAPGKERELVASITRRGGTTYYADSVKGRFTLSRDYAKNTDYLQLNSLKTEDTSVYYCAADSGYRLQSYGYWGQGTQVTVSS | high polyreactivity
QVQLVESGGGLVQAGGSLRLSCAASGFIFTYYAMGWYRQAPGKERELVAAISRIGGSTYYADSVKGRFTISRDNAKYTVYLQMNSLKPEDTAVYYCARYSWPLNKLAVDYWGQGTQVTVSS | high polyreactivity
QVQLVESGGGLVQAGGSLRLSCAASGRIFPRYAMGWYRQAPGKERELFATISSGGSTYYADSVKGRFTISRDNAKNTVYLQMNSLKPEDTAVYYCAARKRPYTVINGMDYWGQGTQVTVSS | low polyreactivity
QVQLVESGGGLVQAGGSLRLSCAASGSIVAGYAMGWYRQAPGKEREMVAAISDSGGNTYYADSVKGRFTISRDNAKNTVYLQMNSLKPEDTAVYYCAADLGYGPLRELEYWGQGTQVTVSS | low polyreactivity
QRQLVESGGGLVQAGGSLRLSCAASGIIFQGYAMGWYRQAPGKERELVAAISHHADSTYADSVKGRFTISRDNAKNPVYLQMNSLKPEDTAVYYCNADTPVRSDYWGQGTQVTVSS | low polyreactivity
QVQLVESGGGLVQAGGSLRLSCAASGSTFEWNAMGWYRQAPGKERELVAAISWRTTRTYYADSVKGRFTISRDNAKNTVYLQMNSLKPEDTAVYYCAVVTSPYYGGYEYWGQGTQVTVSS | high polyreactivity
QVQLVESGGGLVQAGGSLRLSCAASGSTFYPYVMGWYRQAPGKERELVAGISYRGGITYYADSVKGRFTISRDYAKNTVYLQMNSLKPEDTAVYYCAADYWSVYLARKMDYWGQGTQVTVSS | low polyreactivity
QVQLVESGGGLVQAGGSLRLSCGASGAIFSRYAMGWSRPAPGKERQLVAAITSSGGSTYYADSVKGRFTISRDNAKNTVYLQMNSLKPEDTAVYYCATQYAGPWGEYDYWGQGTQVTVSS | low polyreactivity
QVQLVESGGGLVQAGGSLRLSCAASGRTFSKYAMGWYRQAPGKERELVAAITRSGSSTYYADSVKGRFTISRDNAKNTVYLQMNSLKPEDTAVYYCAADRYVRSSGSASDYGYWGQGTQVTVSS | low polyreactivity
QVQLVESGGGLVQAGGSLRLSCAASGSTFYIYAMGWYRQAPGKERELVAVITRRGGSTSYADSVKGRFTISRDNAKNTVYLQMNSLKPEDTAVYYCAAKRTWPDVKYIRYGYWGQGAQVTVSS | high polyreactivity
QVQLVETGGGLVQAGGSLRLSCAASASIFTANAMGWYRQAPGKERELVAAISRSGGRTYYADSVKGRFTISRDNAKNTVYLQMNSLKPEDTAVYYCAAVYVYPSTSRYDFWGQGTQVTVSS | high polyreactivity
QVQLVESGGGLVQAGGSLRLSCAASGSILEYYAMGWYRQAPGKERELVAGISSAGNTYYADSVKGRFTISRDNAKNTVYLQMNSLKPEDTAVYYCAAVPWSGEYDYWGQGTQVTVSS | low polyreactivity
QVQLVESGGGLVQAGGSLRLSCAASGNTFDYYDMGWYSQAPGKERELVAAGSGGSTYYADSVKGRFTISRDNAKHTVYLQMNSLKPEDTAVYYCAARDRYYFGGMYYWGQGTQVTVSS | low polyreactivity
QVQLVESGGGLVQAGGSLRLICAASGRTFYWNAMGWYRQAPGKERELVAAISDGGGSTYYADSVKGRFTISRDNAKNTVYLQMNSLKPEDTAVYYCNTPDNQDKPYPGYDYWGQGTQVTVSS | low polyreactivity
QVQLVESGGGLVQAGGSLRLSCAASGNIFESYGMGWYRQAPGKERELVATINTSSGSTYYADSVKGRFTISRDNAKNTVYLQMNSLKPEDTAVYYCAVEGDYWYVSMYYWGQGTQVTVSS | low polyreactivity
QVQLVESGGGLVQAGGSLRLSCAASGSISSVNVMGWYRQAPGKERELVAAISSGTSTHYADSVKGRFTISRDNAKNTVYLQMNSLKPVDTAVYYCAAYFYRQYLYFLYEYDYWGQGTQVTVSS | low polyreactivity
QVQLVESGGGLVQAGGSLRLSCAASGSTRYNAMGWYRQAPGKERELVASIRGNAGSTYYADSVKGRFTISRDNAKNTVYLQMNSLKPEDTAVYYCNARVLRYSCFHYDYCGQGTQVTVSS | high polyreactivity
QVQLVESGGGLVQAGGSLRLSCAASGGIFGGYAMGWYRQAPGKAGALVAVITSGGSTYYADSVKGRFTISRDNAKNTVYLQMNSLKPEDTAVYYCAADGHSYSYSTYDYWGQGTQVTVSS | low polyreactivity
QVQLVESGGGLVQAGGSLRLSCAASGSIFDFYAMGCYRQAPGKERELVAAISGSGGSTYYADSVKGRFTMSRDNAKNTVYLQMNSLKPEDTAVYYCSYYYWGQRTQVTVSS | low polyreactivity
QVQLVESGGGLVQAGGSLRLSCAASGRTISYAMGWYRQAPGKEREMVAAIRYRGGSTYYADSVKGRFTISRDNAKNTVYLQMNSLKPEDTAVYYCAAQDSYTPPILFRRGYLRYDYWGQGTQVTVSS | low polyreactivity
QVQLVESGGGLVQAGGSLRLSCASSGSIFFLYTMGWYRQAPGKERELVAAIDSGGSTNYADSVKGRFTISRDNAKNTVYLQMNSLKPEDTAVYYCNADGGYYYPYRGYHKYYYWGQGTQVTVSS | low polyreactivity

Sequence | polyreactivity (PSR sort gate)
QVQLVESAGGLVQAGGSLRLSCAASGSTFYFNAMGWYRQAPGKERELVAAISGGGGTNYADSVKGRFTISRDNAKNTVYLQMTSLKPEDTAVYYCAARNRGLRLSNYFGGNYNRDYWGQGTQVTVSS | low polyreactivity
QVQLVESGGGLVQAGGSLRLSCAASGIIFRDYGMGWSRQAPGKEREFVATITYSGGGTYYADSVKGRFTISRDKAKNTVYLQMNSLKPEDTAVYYCAAYPFYYDLAYDYWGQGTQVTVSS | low polyreactivity
QVQLVESVGGLVQAGGSLRLSCAASALAMGWYRHAPGKERELVAVITSDGRTYYADSVKGRFTISRDNAKNTVYLQMNSLKPEDTAVYYCARDSRTIRYYAWFYPFRYDYWGQGTQVTVSS | low polyreactivity
QVQLVESGGGLVQAGGSLRLSCAASGRIFWWNTMGWYRQAPGKERELVASITGSGGRTSYADSVKGRFTISRDNAKNTVYLQMNSLKPEDTAVYYCAKEHVSKWSYPYYYWGQGTQVTVSS | high polyreactivity
QVQLHESGGGLVQAGGSLRLSCAASGTISYAGPMGWYRQAPGKEREVVAGIGVGSNTIYADSVKGRYTIIRDNAKKTVYLQMKSLKPEDTEVYYCAVGGYAPLGRPYWGQGTQVTVSS | low polyreactivity
QVQLVESGGGLVQAGGSLRLSCAASGSTFHTYVMGWYRQAPGKERELVASISSGGSTYYADSVKGRFTISRDNAKNTVSLQMNSLKPEDTAVYYCAAGYPYYWHFDYWGQGSQVTVSS | low polyreactivity
QVQLVESGGGLVQAGGSLRLSCAASGFIFSYYTMGWYRQAPGKERELVAAITSGGSTNYADSVKGRFTISRDNAKNTVYLQMNSLKPEDTAVYYCNALLWAWTLWGSGYDYWGQGTQVTVSS | low polyreactivity
QVQLVESGGGLVQAGGSLRLSCAASGRISTTNAMGWYRQAPGKERELVASITSGGGTNYADSVKGRFTISRDNAKNTVYLQMNCLKPEDTAVYYCAKRRSYFLHSYYSYGYWGQGTQVTVSS | high polyreactivity
QVQLVESGGGLVQAGGSLRLSCAASGRIFPVNDMGWYRQAPGKERELVASITYSGGSTYYADSVKGRFTISRDNAKNTVYLQMNSLKPEDTAVYYCAADDGSQYYFDSPHEYDYWGQGTQVTVSS | low polyreactivity
QVQLVESGGGLVQAGGSLRLSCAASGSILLYYTMGWYRQAPGKERELVASITSGGRTYYADSVKGRFTISRDNAKNTVYLQMNSLKPEDTAVYYCAADVWKLYDYWGQGTQVTVSS | low polyreactivity
QVQLVESGGGLVQAGGSLRLSCAASGITFDKYAMGWYRQAPGKERQLVAAISGSDGSTYYADSVKGRFTITRDNAKNTVYLQMNSLKPEDTAVYYCAAESEYAGTYEYDYWGQGSQVTVSS | low polyreactivity
QVQLVESGGGLVQAGGSLRLSCAASGSTFPGYAMGWYRQAPGKERELVAAITAGGGSTYYADSVKGRFTISRDNAKNSVYLLMKSLKPEDTAVYYCAKRYSYYGWRRYDYWGQGTQVTVSS | high polyreactivity
QDQLVESGGGLDQAGGSLRLSCAASGSTFSPYAMGWYRQAPGKERELVAGITSSGGDSYYADSVKGRFTISRDNAKNTVYLQMKSLKPEDTAVYYCAADWWVLGQLCFDYWGQGTQVNVSS | low polyreactivity
QVQLVESGGGLVQAGGSLRLSCDASGGTFYRNAMGWYRQAHGKERELVAVISKRGTSTYYADSVKGRFTISRDNAKNTVYLQMNSLKPEDTAVYYCATVYYHLSPNRPYGYWGQGTQVTLSS | high polyreactivity
QVQLEESGGRLVQAGGSLRLTCAASGRTYARYAIGWNRQAPGKERQLVAAISRGGTTNYADSVKGRFTISRDNAKNTVYLQMNSLKPEDTAVYYCNRDFHLIHLSSARLDYWGQGTQVTVSS | low polyreactivity
QVQLVESGGGLVQAGGSLRLSCAASGSIFHYNAMGWYIQAPGKERELVASISSGGRTYYADSVKGRFTISRDNAKNTVYLQMNSLKPEDTAVYYCAAENFWQTKEYDYWGQGTQVTVSS | low polyreactivity
QVQLVESGGGLVQAGGSLRLSCAASGSTFEYYAMGWYRQAPGKERELVAAISTAGSTYYADSVKGRFTISRDNAKNTVYLQMNSLKQEDTAVYYCAVDPSPRSYYNYYWGQGTQVTVSS | high polyreactivity
QVQLVESGGGLVQAGGSLRLSCAASGSTFIRNAMGWYRQAPGKERELVAVISSGGSTYYADSVKGRFTISRDNAKNTVYLQMNSLKPEDTAVYYCAAGDPQKEDYWGQGTQVTVSS | low polyreactivity
QVQLVESGGGLVQAGRSIRLTCAASGITFSEYAMGWYRQAPGKEREFVAAISRRGGSTYYADYVKGRFTISSDNAKNTVYLQMNSLKAEDTAVYYCNRRYVTFRFEQDYDYWGQGNQVTVSS | low polyreactivity
QVQLVESGGGLVQAGGSLRLSCASSGRSLSVYAMGRYRQAPGKERDLVADITWRGGSTYYADSVKGRFTISRDNAKNTVYLQMNSLKPEDTAVYYCAAADSTWFDWGNYWYYYWGQGTQVSVSS | low polyreactivity
QVQLVESGGGLVQAGGSLRLSCAASGSIFRTNAMGWYRQAPGKERELVASISRRGGSTYYADSVKGRFTISRDNAKNTVYLQMNSLKPEDTAVYYCAAVGYYSNTLHPWWDMYYWGQGTQVTVSS | high polyreactivity
